Tests used:
Experiment in all cases: holdup assay
Design in all cases: key: below the threshold = too weak to quantify, mostly under pKd 3.1 to 4
GRIP2_3, Q9C0E4 = biological target: GRIP2_3, Q9C0E4
PTPN3, P26045 = biological target: PTPN3, P26045
NHERF4_2, Q86UT5 = biological target: NHERF4_2, Q86UT5
ARHGEF11, O15085 = biological target: T1, ARHGEF11, O15085
T1 sequence (O15085 42-136, limits assumed, looked up): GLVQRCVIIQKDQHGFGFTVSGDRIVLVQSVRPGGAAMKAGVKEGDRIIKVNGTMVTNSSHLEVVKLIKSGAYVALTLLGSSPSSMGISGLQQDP

MPDZ_10, O75970 = biological target: T2, MPDZ_10, O75970
T2 sequence (O75970 1624-1722, limits assumed, looked up): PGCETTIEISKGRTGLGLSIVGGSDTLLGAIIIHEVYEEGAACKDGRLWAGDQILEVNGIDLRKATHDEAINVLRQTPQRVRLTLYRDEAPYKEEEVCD

MAGI2_2, Q86UL8 = biological target: MAGI2_2, Q86UL8
MAGI3_2, Q5TCQ9 = biological target: MAGI3_2, Q5TCQ9
LNX2_3, Q8N448 = biological target: T3, LNX2_3, Q8N448
T3 sequence (Q8N448 463-564, limits assumed, looked up): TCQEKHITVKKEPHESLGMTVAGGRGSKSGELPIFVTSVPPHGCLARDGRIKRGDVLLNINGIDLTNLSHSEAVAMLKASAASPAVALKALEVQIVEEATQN

NHERF3_1, Q5T2W1 = biological target: T4, NHERF3_1, Q5T2W1
T4 sequence (Q5T2W1 4-100, limits assumed, looked up): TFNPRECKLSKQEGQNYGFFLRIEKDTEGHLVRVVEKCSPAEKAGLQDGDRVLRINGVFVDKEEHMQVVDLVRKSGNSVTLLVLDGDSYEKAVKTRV

DLG1_2, Q12959 = biological target: DLG1_2, Q12959
DLG2_3, Q15700 = biological target: DLG2_3, Q15700
FRMPD2_2, Q68DX3 = biological target: FRMPD2_2, Q68DX3
Inadl_1, Q8NI35 = biological target: Inadl_1, Q8NI35
GRIP2_5, Q9C0E4 = biological target: GRIP2_5, Q9C0E4
MAGI2_6, Q86UL8 = biological target: MAGI2_6, Q86UL8
DLG1_3, Q12959 = biological target: DLG1_3, Q12959
GRIP1_3, Q9Y3R0 = biological target: T5, GRIP1_3, Q9Y3R0
T5 sequence (Q9Y3R0 247-346, limits assumed, looked up): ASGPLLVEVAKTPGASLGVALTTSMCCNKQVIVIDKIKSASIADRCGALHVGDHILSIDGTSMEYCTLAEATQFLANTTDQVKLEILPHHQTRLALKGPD

RADIL, Q96JH8 = biological target: T6, RADIL, Q96JH8
T6 sequence (Q96JH8 971-1071, limits assumed, looked up): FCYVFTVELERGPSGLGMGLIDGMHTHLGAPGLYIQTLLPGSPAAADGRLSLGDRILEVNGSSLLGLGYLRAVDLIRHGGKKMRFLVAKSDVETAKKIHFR

SCRIB_3, Q14160 = biological target: SCRIB_3, Q14160
HTRA2, O43464 = biological target: HTRA2, O43464
GRIP1_5, Q9Y3R0 = biological target: T7, GRIP1_5, Q9Y3R0
T7 sequence (Q9Y3R0 568-668, limits assumed, looked up): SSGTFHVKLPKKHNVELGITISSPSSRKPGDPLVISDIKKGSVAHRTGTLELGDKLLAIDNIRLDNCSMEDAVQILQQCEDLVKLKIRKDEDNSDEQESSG

DFNB31_3, Q9P202 = biological target: T8, DFNB31_3, Q9P202
T8 sequence (Q9P202 811-907, limits assumed, looked up): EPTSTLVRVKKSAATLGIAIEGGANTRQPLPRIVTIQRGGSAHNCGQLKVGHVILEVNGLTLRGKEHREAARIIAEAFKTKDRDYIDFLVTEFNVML

CARD11, Q9BXL7 = biological target: T9, CARD11, Q9BXL7
T9 sequence (Q9BXL7 662-765, limits assumed, looked up): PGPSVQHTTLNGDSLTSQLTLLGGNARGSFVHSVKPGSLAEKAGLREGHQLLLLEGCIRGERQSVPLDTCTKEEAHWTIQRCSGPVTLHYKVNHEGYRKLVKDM

GORASP1, Q9BQQ3 = biological target: GORASP1, Q9BQQ3
MAGI2_5, Q86UL8 = biological target: MAGI2_5, Q86UL8
SNTA1, Q13424 = biological target: T10, SNTA1, Q13424
T10 sequence (Q13424 82-180, limits assumed, looked up): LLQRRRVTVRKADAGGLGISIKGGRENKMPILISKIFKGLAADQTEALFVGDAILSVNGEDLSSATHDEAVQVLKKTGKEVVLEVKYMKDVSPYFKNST

Inadl_4, Q8NI35 = biological target: Inadl_4, Q8NI35
[1] = plain residues with an end cap or a label only (N-terminal biotin on a linker: ado-ado)
[2] = modified: phospho on S at position -3 from the C-terminal residue
[3] = modified: acetyl on K at position -1 from the C-terminal residue

Measured: pKd

PTPN3, P26045, sequence (P26045 505-587): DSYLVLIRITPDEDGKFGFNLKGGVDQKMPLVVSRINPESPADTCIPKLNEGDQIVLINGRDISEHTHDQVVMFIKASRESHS
MAGI2_5, Q86UL8, sequence (Q86UL8 915-1017): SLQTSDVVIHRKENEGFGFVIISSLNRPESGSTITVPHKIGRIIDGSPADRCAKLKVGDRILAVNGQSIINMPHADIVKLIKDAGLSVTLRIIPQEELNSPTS
MAGI3_2, Q5TCQ9, sequence (Q5TCQ9 398-503): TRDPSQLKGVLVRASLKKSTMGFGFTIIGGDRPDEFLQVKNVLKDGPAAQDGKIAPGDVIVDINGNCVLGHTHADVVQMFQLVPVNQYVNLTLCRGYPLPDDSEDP
DLG1_2, Q12959, sequence (Q12959 314-412): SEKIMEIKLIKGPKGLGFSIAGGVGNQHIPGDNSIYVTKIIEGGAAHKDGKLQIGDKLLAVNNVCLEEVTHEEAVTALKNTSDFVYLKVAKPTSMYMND
FRMPD2_2, Q68DX3, sequence (Q68DX3 944-1038): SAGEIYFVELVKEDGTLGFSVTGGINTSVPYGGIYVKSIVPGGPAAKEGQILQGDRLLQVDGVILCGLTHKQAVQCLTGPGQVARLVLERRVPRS
NHERF4_2, Q86UT5, sequence (Q86UT5 220-308): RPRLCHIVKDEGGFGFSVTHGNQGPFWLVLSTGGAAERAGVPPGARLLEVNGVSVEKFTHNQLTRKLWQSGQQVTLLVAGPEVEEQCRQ
SCRIB_3, Q14160, sequence (Q14160 999-1103): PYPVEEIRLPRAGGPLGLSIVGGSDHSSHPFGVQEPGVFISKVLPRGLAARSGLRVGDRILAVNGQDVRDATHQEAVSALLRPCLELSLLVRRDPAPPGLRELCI
GRIP2_5, Q9C0E4, sequence (Q9C0E4 544-642): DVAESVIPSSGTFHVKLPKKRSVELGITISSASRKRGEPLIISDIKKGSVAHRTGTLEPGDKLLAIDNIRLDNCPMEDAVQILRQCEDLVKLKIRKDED
HTRA2, O43464, sequence (O43464 355-458): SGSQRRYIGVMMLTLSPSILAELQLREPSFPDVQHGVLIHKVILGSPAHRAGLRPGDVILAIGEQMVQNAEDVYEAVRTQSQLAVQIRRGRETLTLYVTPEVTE
GRIP2_3, Q9C0E4, sequence (Q9C0E4 238-339): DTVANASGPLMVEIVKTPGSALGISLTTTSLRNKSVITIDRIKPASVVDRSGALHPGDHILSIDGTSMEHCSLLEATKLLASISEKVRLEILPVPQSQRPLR
DLG1_3, Q12959, sequence (Q12959 457-571): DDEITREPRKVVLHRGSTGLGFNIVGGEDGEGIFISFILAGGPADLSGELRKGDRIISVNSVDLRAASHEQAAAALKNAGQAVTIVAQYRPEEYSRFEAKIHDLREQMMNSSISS
Inadl_1, Q8NI35, sequence (Q8NI35 113-229): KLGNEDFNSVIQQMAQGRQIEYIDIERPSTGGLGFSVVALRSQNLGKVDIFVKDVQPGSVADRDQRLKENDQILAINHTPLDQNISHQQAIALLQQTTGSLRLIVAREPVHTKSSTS
GORASP1, Q9BQQ3, sequence (Q9BQQ3 1-208): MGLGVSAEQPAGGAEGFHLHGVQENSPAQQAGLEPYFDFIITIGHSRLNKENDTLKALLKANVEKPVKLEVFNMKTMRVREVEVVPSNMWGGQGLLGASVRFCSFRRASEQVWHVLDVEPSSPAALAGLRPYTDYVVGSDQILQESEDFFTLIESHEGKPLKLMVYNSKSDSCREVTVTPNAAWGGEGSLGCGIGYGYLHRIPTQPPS
Inadl_4, Q8NI35, sequence (Q8NI35 547-651): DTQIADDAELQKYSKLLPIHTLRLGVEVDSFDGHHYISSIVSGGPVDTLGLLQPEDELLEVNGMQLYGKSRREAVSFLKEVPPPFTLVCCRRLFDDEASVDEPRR
MAGI2_2, Q86UL8, sequence (Q86UL8 410-522): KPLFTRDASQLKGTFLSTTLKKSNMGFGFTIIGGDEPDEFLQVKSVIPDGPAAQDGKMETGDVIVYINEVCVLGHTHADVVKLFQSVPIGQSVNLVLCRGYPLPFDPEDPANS
MAGI2_6, Q86UL8, sequence (Q86UL8 1141-1229): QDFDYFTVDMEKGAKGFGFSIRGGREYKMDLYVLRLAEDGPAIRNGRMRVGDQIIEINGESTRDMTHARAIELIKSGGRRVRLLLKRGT

LETREPTNTL [GRIP1, Q9Y3R0]
below the threshold: GRIP2_3, Q9C0E4; [1] | PTPN3, P26045; [1] | NHERF4_2, Q86UT5; [1] | ARHGEF11, O15085; [1] | MPDZ_10, O75970; [1] | MAGI2_2, Q86UL8; [1] | MAGI3_2, Q5TCQ9; [1] | LNX2_3, Q8N448; [1] | NHERF3_1, Q5T2W1; [1] | DLG1_2, Q12959; [1] | DLG2_3, Q15700; [1] | FRMPD2_2, Q68DX3; [1] | Inadl_1, Q8NI35; [1] | GRIP2_5, Q9C0E4; [1] | MAGI2_6, Q86UL8; [1] | DLG1_3, Q12959; [1] | GRIP1_3, Q9Y3R0; [1] | RADIL, Q96JH8; [1] | SCRIB_3, Q14160; [1] | HTRA2, O43464; [1] | GRIP1_5, Q9Y3R0; [1] | CARD11, Q9BXL7; [1] | GORASP1, Q9BQQ3; [1] | MAGI2_5, Q86UL8; [1] | SNTA1, Q13424; [1] | Inadl_4, Q8NI35; [1]
3.96: DFNB31_3, Q9P202; [1]

RRVRKLPSTTL [RPS6KA1_-3P, Q15418]
4.51: PTPN3, P26045; [2]
4.1: MAGI3_2, Q5TCQ9; [2]
4.4: SNTA1, Q13424; [2]
3.75: HTRA2, O43464; [2]
3.57: MAGI2_2, Q86UL8; [2]
3.66: Inadl_1, Q8NI35; [2]
4.35: SCRIB_3, Q14160; [2]
3.61: DLG1_2, Q12959; [2]
below the threshold: GRIP2_3, Q9C0E4; [2] | NHERF4_2, Q86UT5; [2] | ARHGEF11, O15085; [2] | MPDZ_10, O75970; [2] | LNX2_3, Q8N448; [2] | NHERF3_1, Q5T2W1; [2] | DLG2_3, Q15700; [2] | FRMPD2_2, Q68DX3; [2] | GRIP2_5, Q9C0E4; [2] | MAGI2_6, Q86UL8; [2] | DLG1_3, Q12959; [2] | GRIP1_3, Q9Y3R0; [2] | RADIL, Q96JH8; [2] | GRIP1_5, Q9Y3R0; [2] | DFNB31_3, Q9P202; [2] | CARD11, Q9BXL7; [2] | GORASP1, Q9BQQ3; [2] | MAGI2_5, Q86UL8; [2] | Inadl_4, Q8NI35; [2]

DEDQHTQITKV [PTEN_Ac, P60484]
4.16: NHERF3_1, Q5T2W1; [3]
4.55: MAGI3_2, Q5TCQ9; [3]
3.74: SCRIB_3, Q14160; [3]
4.25: DFNB31_3, Q9P202; [3]
below the threshold: GRIP2_3, Q9C0E4; [3] | NHERF4_2, Q86UT5; [3] | LNX2_3, Q8N448; [3] | DLG2_3, Q15700; [3] | GRIP2_5, Q9C0E4; [3] | DLG1_3, Q12959; [3] | GRIP1_3, Q9Y3R0; [3] | HTRA2, O43464; [3] | GRIP1_5, Q9Y3R0; [3] | CARD11, Q9BXL7; [3] | Inadl_4, Q8NI35; [3]
4.71: RADIL, Q96JH8; [3] | SNTA1, Q13424; [3]
4.88: MAGI2_5, Q86UL8; [3]
4.2: PTPN3, P26045; [3]
4.67: DLG1_2, Q12959; [3]
3.77: MAGI2_2, Q86UL8; [3]
4.57: MAGI2_6, Q86UL8; [3]
5.16: ARHGEF11, O15085; [3]
4.04: GORASP1, Q9BQQ3; [3]
3.85: Inadl_1, Q8NI35; [3]
4.18: MPDZ_10, O75970; [3]
4.58: FRMPD2_2, Q68DX3; [3]

PDGEMMEVLI [AMOTL1, Q8IY63]
below the threshold: GRIP2_3, Q9C0E4; [1] | PTPN3, P26045; [1] | NHERF4_2, Q86UT5; [1] | ARHGEF11, O15085; [1] | MPDZ_10, O75970; [1] | MAGI2_2, Q86UL8; [1] | MAGI3_2, Q5TCQ9; [1] | LNX2_3, Q8N448; [1] | DLG1_2, Q12959; [1] | FRMPD2_2, Q68DX3; [1] | Inadl_1, Q8NI35; [1] | GRIP2_5, Q9C0E4; [1] | MAGI2_6, Q86UL8; [1] | DLG1_3, Q12959; [1] | GRIP1_3, Q9Y3R0; [1] | HTRA2, O43464; [1] | GRIP1_5, Q9Y3R0; [1] | CARD11, Q9BXL7; [1] | MAGI2_5, Q86UL8; [1] | SNTA1, Q13424; [1] | Inadl_4, Q8NI35; [1]
4.05: NHERF3_1, Q5T2W1; [1]
3.65: DFNB31_3, Q9P202; [1]
3.74: SCRIB_3, Q14160; [1]
3.9: RADIL, Q96JH8; [1]
3.76: GORASP1, Q9BQQ3; [1]
3.58: DLG2_3, Q15700; [1]

FEEEAEEEVA [TUBB4B, P68371]
below the threshold: GRIP2_3, Q9C0E4; [1] | NHERF4_2, Q86UT5; [1] | ARHGEF11, O15085; [1] | MPDZ_10, O75970; [1] | MAGI2_2, Q86UL8; [1] | MAGI3_2, Q5TCQ9; [1] | LNX2_3, Q8N448; [1] | NHERF3_1, Q5T2W1; [1] | DLG1_2, Q12959; [1] | DLG2_3, Q15700; [1] | FRMPD2_2, Q68DX3; [1] | Inadl_1, Q8NI35; [1] | GRIP2_5, Q9C0E4; [1] | MAGI2_6, Q86UL8; [1] | DLG1_3, Q12959; [1] | GRIP1_3, Q9Y3R0; [1] | RADIL, Q96JH8; [1] | SCRIB_3, Q14160; [1] | HTRA2, O43464; [1] | GRIP1_5, Q9Y3R0; [1] | CARD11, Q9BXL7; [1] | GORASP1, Q9BQQ3; [1] | MAGI2_5, Q86UL8; [1] | SNTA1, Q13424; [1] | Inadl_4, Q8NI35; [1]
3.54: PTPN3, P26045; [1]
3.89: DFNB31_3, Q9P202; [1]

— article PMC9482650, “Quantitative fragmentomics allow affinity mapping of interactomes” (Nature Communications, 2022)
